Laboratory results taken from the supplement of paper PMC10065799, “High-throughput profiling of sequence recognition by tyrosine kinases and SH2 domains using bacterial peptide display” (eLife, 2023).

What was measured:
AncSZ = experiment: phosphorylation enrichment, bacterial display (enrichment ratio); higher = better substrate or ligand; peptides without Tyr show the background
EPHB1 = EPHB1 (UniProt P54762); experiment: as above
EPHB2 = EPHB2 (UniProt P29323); experiment: as above
FGFR1 = FGFR1 (UniProt P11362); experiment: as above
FGFR3 = FGFR3 (UniProt P22607); experiment: as above
Fer (mouse) = experiment: as above
Fes = Fes (UniProt P07332); experiment: as above
Fyn = Fyn (UniProt P06241); experiment: as above
Hck = Hck (UniProt P08631); experiment: as above
Jak2 = Jak2 (UniProt O60674); experiment: as above
MERTK = MERTK (UniProt Q12866); experiment: as above
c-Abl (mouse) = experiment: as above
c-Src = experiment: as above
Grb2 SH2 = Grb2 SH2 (UniProt P62993); experiment: SH2 binding enrichment of the phosphorylated peptide, bacterial display (enrichment ratio); higher = better substrate or ligand; peptides without Tyr show the background
SHP2-C SH2 = experiment: as above
c-Src SH2 = experiment: as above
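For SH2 binding enrichment of the phosphorylated peptide, bacterial display in this document: peptide library displayed on the E. coli surface as eCPX fusions, selected cells deep-sequenced, score is each peptide's frequency after selection divided by its frequency in the input.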
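For phosphorylation enrichment, bacterial display in this document: 11-residue human phosphosite peptides and single-mutation variants displayed on the E. coli surface, counted by deep sequencing, each peptide's frequency after selection divided by its frequency in the unselected input library; frequency after pTyr selection over input frequency; kinase dosed for 20-30% of maximal phosphorylation in three min.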

Sequence of EPHB1 (P54762 whole entry, looked up): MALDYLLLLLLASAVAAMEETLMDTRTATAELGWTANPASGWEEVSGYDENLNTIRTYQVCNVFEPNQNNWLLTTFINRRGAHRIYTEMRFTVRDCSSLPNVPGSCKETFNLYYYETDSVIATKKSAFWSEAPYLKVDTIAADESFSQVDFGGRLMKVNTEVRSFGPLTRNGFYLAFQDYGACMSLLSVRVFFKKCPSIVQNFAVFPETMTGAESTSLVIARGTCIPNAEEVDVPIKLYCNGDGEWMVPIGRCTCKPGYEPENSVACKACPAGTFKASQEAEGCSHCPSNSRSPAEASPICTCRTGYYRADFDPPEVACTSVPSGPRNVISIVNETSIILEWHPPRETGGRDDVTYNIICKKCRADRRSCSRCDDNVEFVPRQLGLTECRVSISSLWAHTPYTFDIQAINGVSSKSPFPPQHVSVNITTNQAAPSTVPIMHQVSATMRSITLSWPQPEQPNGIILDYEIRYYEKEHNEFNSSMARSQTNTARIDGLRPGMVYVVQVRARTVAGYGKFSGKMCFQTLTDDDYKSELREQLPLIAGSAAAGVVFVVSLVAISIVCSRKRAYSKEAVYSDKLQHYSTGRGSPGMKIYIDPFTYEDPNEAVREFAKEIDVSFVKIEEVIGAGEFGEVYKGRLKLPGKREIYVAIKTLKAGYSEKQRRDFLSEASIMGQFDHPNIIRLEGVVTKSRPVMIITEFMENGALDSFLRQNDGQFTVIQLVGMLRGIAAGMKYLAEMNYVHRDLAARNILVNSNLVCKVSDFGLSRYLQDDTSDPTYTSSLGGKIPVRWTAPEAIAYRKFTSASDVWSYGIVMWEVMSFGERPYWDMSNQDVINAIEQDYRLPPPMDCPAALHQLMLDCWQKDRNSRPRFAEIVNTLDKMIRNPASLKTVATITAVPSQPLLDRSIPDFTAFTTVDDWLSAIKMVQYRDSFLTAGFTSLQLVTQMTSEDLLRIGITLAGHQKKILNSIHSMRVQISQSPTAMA
Sequence of Grb2 SH2 (P62993 whole entry, looked up): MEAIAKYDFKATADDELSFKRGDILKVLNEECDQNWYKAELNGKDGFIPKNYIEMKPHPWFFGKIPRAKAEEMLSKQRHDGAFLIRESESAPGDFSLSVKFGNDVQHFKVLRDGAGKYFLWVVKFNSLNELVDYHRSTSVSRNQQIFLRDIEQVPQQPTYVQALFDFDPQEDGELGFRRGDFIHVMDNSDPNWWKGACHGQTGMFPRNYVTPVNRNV
Sequence of Fes (P07332 whole entry, looked up): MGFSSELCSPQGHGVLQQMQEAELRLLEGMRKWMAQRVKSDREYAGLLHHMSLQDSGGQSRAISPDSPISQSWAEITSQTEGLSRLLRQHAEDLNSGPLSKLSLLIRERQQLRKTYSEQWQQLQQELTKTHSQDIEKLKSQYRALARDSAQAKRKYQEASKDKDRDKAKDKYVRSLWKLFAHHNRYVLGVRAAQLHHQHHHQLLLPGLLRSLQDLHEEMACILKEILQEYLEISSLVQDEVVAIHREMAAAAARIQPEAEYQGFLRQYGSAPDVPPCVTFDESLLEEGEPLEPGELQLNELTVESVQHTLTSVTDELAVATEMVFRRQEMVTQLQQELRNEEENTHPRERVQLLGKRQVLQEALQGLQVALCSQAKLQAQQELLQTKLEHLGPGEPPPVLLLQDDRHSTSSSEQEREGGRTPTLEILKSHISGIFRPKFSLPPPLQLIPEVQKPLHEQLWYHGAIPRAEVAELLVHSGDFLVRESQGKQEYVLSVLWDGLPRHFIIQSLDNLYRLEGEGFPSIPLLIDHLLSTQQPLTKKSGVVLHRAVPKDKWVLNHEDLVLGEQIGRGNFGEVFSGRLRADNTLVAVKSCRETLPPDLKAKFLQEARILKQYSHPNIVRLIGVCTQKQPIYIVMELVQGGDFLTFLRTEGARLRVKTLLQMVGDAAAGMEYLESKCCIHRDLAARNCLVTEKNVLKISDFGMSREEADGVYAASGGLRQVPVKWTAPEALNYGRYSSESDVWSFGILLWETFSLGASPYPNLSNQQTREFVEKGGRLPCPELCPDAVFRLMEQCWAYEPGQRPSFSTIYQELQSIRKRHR
Sequence of FGFR1 (P11362 whole entry, looked up): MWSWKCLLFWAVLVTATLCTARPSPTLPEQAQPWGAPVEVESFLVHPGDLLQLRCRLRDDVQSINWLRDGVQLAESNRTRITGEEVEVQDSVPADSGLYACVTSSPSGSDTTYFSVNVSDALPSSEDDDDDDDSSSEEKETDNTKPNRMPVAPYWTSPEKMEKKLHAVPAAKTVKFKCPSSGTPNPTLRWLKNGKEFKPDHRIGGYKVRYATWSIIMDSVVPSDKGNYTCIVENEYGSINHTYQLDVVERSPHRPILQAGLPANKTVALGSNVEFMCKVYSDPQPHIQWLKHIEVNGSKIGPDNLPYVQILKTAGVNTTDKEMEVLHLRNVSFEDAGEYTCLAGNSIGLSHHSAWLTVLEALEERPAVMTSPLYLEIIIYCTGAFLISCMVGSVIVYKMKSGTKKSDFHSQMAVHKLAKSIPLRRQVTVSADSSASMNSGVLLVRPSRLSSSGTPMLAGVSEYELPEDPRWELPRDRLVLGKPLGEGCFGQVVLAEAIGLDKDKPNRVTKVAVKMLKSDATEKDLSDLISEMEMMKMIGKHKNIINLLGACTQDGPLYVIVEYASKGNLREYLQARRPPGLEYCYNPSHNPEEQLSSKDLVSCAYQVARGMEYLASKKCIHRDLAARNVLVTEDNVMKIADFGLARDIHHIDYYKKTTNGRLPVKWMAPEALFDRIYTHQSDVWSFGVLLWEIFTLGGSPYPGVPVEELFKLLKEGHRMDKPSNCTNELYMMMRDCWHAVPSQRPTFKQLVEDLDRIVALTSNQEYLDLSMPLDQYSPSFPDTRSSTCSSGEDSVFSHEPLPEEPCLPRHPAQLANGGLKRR
Sequence of Jak2 (O60674 whole entry, looked up): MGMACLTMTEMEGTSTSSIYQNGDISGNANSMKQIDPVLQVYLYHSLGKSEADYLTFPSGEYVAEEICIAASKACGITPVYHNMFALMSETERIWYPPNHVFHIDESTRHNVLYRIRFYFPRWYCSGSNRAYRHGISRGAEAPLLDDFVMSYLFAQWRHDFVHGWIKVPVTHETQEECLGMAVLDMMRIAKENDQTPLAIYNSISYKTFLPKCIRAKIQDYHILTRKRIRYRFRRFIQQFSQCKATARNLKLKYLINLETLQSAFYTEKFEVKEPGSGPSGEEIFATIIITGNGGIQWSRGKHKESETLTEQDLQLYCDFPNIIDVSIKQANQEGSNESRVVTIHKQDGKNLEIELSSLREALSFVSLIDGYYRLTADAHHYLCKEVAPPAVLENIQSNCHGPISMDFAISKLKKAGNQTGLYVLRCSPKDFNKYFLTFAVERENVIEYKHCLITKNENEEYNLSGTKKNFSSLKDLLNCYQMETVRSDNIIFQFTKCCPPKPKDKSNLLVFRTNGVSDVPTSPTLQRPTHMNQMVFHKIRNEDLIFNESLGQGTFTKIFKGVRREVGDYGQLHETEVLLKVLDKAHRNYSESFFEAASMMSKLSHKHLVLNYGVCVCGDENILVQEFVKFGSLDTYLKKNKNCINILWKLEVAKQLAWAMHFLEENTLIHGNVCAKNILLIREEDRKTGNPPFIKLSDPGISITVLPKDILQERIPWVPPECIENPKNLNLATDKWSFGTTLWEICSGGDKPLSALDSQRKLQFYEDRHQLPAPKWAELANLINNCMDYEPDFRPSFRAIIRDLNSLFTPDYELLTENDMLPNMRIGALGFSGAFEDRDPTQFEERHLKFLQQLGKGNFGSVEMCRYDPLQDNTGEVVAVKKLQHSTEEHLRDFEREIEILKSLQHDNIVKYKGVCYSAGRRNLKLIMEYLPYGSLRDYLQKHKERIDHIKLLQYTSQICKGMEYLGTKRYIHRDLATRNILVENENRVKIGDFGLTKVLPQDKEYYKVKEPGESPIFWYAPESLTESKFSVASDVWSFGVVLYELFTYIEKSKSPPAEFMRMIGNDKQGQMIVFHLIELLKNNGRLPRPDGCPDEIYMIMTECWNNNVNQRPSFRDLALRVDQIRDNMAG
Sequence of EPHB2 (P29323 whole entry, looked up): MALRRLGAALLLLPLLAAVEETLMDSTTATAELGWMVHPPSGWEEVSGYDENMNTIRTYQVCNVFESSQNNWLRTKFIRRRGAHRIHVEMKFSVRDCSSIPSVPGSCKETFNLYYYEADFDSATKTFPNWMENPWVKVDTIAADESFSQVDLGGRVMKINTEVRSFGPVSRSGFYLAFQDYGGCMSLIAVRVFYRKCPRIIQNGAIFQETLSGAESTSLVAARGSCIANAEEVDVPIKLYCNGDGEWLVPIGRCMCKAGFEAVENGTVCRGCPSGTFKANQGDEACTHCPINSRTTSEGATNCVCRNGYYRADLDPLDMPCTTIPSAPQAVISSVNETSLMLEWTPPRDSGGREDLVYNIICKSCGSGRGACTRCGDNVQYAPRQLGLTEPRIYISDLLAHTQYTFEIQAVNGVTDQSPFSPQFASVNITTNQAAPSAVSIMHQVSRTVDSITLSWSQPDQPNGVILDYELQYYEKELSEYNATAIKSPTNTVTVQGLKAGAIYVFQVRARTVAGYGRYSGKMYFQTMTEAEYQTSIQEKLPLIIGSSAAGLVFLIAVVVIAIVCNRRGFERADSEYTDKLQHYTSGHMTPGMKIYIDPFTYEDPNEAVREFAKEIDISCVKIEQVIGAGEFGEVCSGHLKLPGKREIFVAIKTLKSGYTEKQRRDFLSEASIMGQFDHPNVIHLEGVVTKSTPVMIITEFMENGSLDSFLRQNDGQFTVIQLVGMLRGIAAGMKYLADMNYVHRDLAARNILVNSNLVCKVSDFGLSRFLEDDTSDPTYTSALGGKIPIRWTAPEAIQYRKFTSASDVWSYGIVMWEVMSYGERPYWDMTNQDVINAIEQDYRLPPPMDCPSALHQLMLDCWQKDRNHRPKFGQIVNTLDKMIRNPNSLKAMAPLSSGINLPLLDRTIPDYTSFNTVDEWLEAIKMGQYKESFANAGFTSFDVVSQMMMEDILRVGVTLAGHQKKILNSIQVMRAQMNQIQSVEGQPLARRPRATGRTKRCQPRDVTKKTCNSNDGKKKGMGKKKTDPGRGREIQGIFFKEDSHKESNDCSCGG

Sequence | phosphorylation enrichment (AncSZ) | phosphorylation enrichment (EPHB1) | phosphorylation enrichment (EPHB2) | phosphorylation enrichment (FGFR1) | phosphorylation enrichment (FGFR3) | phosphorylation enrichment (Fer (mouse)) | phosphorylation enrichment (Fes) | phosphorylation enrichment (Fyn) | phosphorylation enrichment (Hck) | phosphorylation enrichment (Jak2) | phosphorylation enrichment (MERTK) | phosphorylation enrichment (c-Abl (mouse)) | phosphorylation enrichment (c-Src) | SH2 binding enrichment (Grb2 SH2) | SH2 binding enrichment (SHP2-C SH2) | SH2 binding enrichment (c-Src SH2)
EIEFLYNENMV [IARS1_Y680_T684M] | 1.21 | 0.595 | 0.678 | 0.418 | 0.693 | 0.526 | 1.11 | 0.484 | 0.526 | 1.07 | 0.411 | 0.62 | 0.421 | 0.727 | 0.882 | 0.592
EKFVPYFDLFM [IPO5_Y530_YF] | 1.33 | 1.06 | 0.652 | 1.74 | 1.71 | 0.608 | 1.35 | 0.57 | 0.581 | 1.32 | 0.444 | 0.858 | 0.596 | 1.05 | 0.827 | 1.11
EKGSNYCLCRT [ASIC2_Y357_D354G] | 0.732 | 0.47 | 0.45 | 0.469 | 0.497 | 0.378 | 0.607 | 0.504 | 0.349 | 0.572 | 0.458 | 0.56 | 0.393 | 0.947 | 0.806 | 0.645
EKLQKYYRQNP [EHHADH_Y682] | 0.523 | 0.568 | 0.543 | 0.509 | 0.497 | 0.367 | 0.667 | 0.391 | 0.408 | 0.55 | 0.371 | 0.581 | 0.428 | 0.927 | 0.746 | 0.548
EKNANYKEGTY [CLRN1_Y171_I168N] | 0.517 | 0.378 | 0.387 | 0.383 | 0.4 | 0.363 | 0.617 | 0.403 | 0.356 | 0.575 | 0.372 | 0.451 | 0.426 | 0.963 | 0.774 | 0.538
EKQLLYLENKT [FRK_Y132_S133L] | 0.712 | 0.567 | 0.44 | 0.398 | 0.589 | 0.405 | 0.985 | 0.467 | 0.459 | 0.672 | 0.337 | 0.41 | 0.356 | 0.881 | 0.631 | 0.467
ELANFYKLHHI [AK7_Y391_YF] | 0.63 | 0.638 | 0.863 | 0.561 | 0.672 | 0.874 | 1.06 | 0.689 | 0.796 | 0.922 | 0.67 | 0.8 | 0.819 | 0.901 | 1.01 | 0.481
ELANLYHHVWM [BICD2_Y538_C542W] | 1.32 | 6.35 | 1.93 | 6.38 | 4.76 | 12.9 | 1.25 | 2.75 | 5.11 | 1.3 | 6.21 | 0.918 | 2.51 | 0.869 | 0.835 | 0.816
ELQDDYEDMME [SLC4A1_Y8] | 1.16 | 0.646 | 0.558 | 0.566 | 0.718 | 0.549 | 1.07 | 0.542 | 0.659 | 0.956 | 0.451 | 0.56 | 0.415 | 0.907 | 0.665 | 0.747
ENSLDYGSAWA [AR_Y395_P392S] | 1.04 | 0.486 | 0.677 | 0.467 | 0.591 | 0.457 | 0.975 | 0.556 | 0.566 | 0.864 | 0.462 | 0.638 | 0.514 | 0.752 | 0.563 | 0.475
EQMASYSGHSV [ITGA2B_Y319_F320S] | 0.496 | 0.298 | 0.363 | 0.384 | 0.406 | 0.734 | 0.543 | 0.449 | 0.488 | 0.736 | 0.337 | 0.493 | 0.37 | 0.821 | 0.615 | 0.515
EQMLEYMEQLQ [CFAP45_Y289] | 1.21 | 0.579 | 0.561 | 0.764 | 0.846 | 0.526 | 0.994 | 0.549 | 0.638 | 1.1 | 0.494 | 0.532 | 0.505 | 0.799 | 0.5 | 0.357
EQQDMYRLKVL [ABCC6_Y372_N370D] | 0.774 | 0.354 | 0.482 | 0.451 | 0.581 | 0.473 | 0.773 | 0.387 | 0.427 | 0.638 | 0.376 | 0.453 | 0.415 | 0.852 | 0.63 | 0.58
ERCAQYKKDVA [ALDOA_Y138_G142V] | 0.726 | 0.527 | 0.607 | 0.579 | 0.604 | 0.45 | 1.05 | 0.596 | 0.525 | 0.65 | 0.385 | 0.624 | 0.491 | 1.07 | 0.976 | 0.585
ERDFTYEELLN [EIF2S2_Y176_YF] | 1.23 | 0.628 | 0.515 | 0.527 | 0.692 | 0.69 | 1.12 | 0.678 | 0.855 | 1.01 | 0.492 | 0.66 | 0.675 | 1.14 | 0.715 | 0.69
EREFKYGAHNH [OAT_Y50_Y55H_YF] | 0.524 | 0.474 | 0.228 | 0.336 | 0.368 | 0.441 | 0.545 | 0.307 | 0.29 | 0.376 | 0.439 | 0.44 | 0.319 | 0.788 | 0.856 | 0.465
ERFSFYGMKAV [SLC15A2_Y61_YF] | 1.08 | 0.647 | 0.605 | 0.505 | 0.84 | 0.554 | 1.56 | 0.439 | 0.546 | 1.02 | 0.383 | 0.812 | 0.455 | 0.796 | 0.68 | 0.427

Sequence | phosphorylation enrichment (AncSZ) | phosphorylation enrichment (EPHB1) | phosphorylation enrichment (EPHB2) | phosphorylation enrichment (FGFR1) | phosphorylation enrichment (FGFR3) | phosphorylation enrichment (Fer (mouse)) | phosphorylation enrichment (Fes) | phosphorylation enrichment (Fyn) | phosphorylation enrichment (Hck) | phosphorylation enrichment (Jak2) | phosphorylation enrichment (MERTK) | phosphorylation enrichment (c-Abl (mouse)) | phosphorylation enrichment (c-Src) | SH2 binding enrichment (Grb2 SH2) | SH2 binding enrichment (SHP2-C SH2) | SH2 binding enrichment (c-Src SH2)
ERMKVYVPTGF [EPHX1_Y393] | 0.658 | 0.407 | 0.522 | 0.513 | 0.539 | 0.562 | 0.818 | 0.515 | 0.472 | 0.557 | 0.453 | 0.672 | 0.563 | 0.761 | 0.768 | 0.56
ERNTVYSSSGV [NELL2_Y350] | 0.539 | 0.502 | 0.379 | 0.372 | 0.679 | 0.359 | 0.474 | 0.544 | 0.768 | 0.405 | 0.39 | 0.521 | 0.666 | 0.952 | 0.741 | 0.485
ESDGAYIHRMQ [CCDC137_Y125] | 0.726 | 0.408 | 0.493 | 0.419 | 0.514 | 0.414 | 0.873 | 0.365 | 0.378 | 0.824 | 0.406 | 0.703 | 0.403 | 0.857 | 0.656 | 0.541
ESDYPYSSSYE [SRPK2_Y427_T426P] | 1.19 | 0.589 | 0.649 | 0.668 | 0.789 | 0.499 | 1.18 | 0.593 | 0.581 | 0.71 | 0.513 | 0.481 | 0.784 | 0.832 | 0.395 | 0.829
ESKAGYRAPRS [CLDN7_Y195_V197A] | 0.536 | 0.35 | 0.415 | 0.425 | 0.483 | 0.339 | 0.519 | 0.415 | 0.404 | 0.593 | 0.34 | 0.402 | 0.349 | 1.04 | 0.74 | 0.542
ETAVHYIHDGI [GATD3A_Y250_L248V] | 0.631 | 0.419 | 0.43 | 0.445 | 0.543 | 0.426 | 0.726 | 0.389 | 0.399 | 0.649 | 0.453 | 0.606 | 0.461 | 0.678 | 0.465 | 0.504
ETMNKYHLSGR [MYEF2_Y164_D165H] | 0.539 | 0.332 | 0.355 | 0.432 | 0.367 | 0.357 | 0.53 | 0.343 | 0.467 | 0.422 | 0.385 | 0.398 | 0.375 | 0.667 | 0.627 | 0.426
EVASVYQSFQP [MAVS_Y92_YF] | 1.22 | 0.785 | 0.846 | 0.604 | 0.991 | 5.55 | 1.2 | 13.6 | 11 | 1.06 | 2.03 | 2.19 | 8.85 | 0.961 | 0.661 | 0.507
EVNETYVPKEF [ALB_Y521_D518N] | 1.19 | 0.584 | 0.543 | 0.524 | 0.796 | 0.518 | 1.26 | 0.564 | 0.534 | 1.19 | 0.477 | 0.851 | 0.523 | 0.759 | 0.501 | 0.404
EVNQDYGLDPK [FH_Y110] | 1.31 | 0.631 | 0.546 | 0.572 | 0.837 | 0.519 | 1.29 | 0.604 | 0.596 | 1.17 | 0.443 | 0.765 | 0.466 | 0.807 | 0.581 | 0.508
EVQKNYEHLFK [PAM16_Y77] | 0.706 | 0.57 | 0.479 | 0.4 | 0.517 | 0.436 | 0.715 | 0.398 | 0.438 | 0.8 | 0.318 | 0.632 | 0.359 | 0.897 | 0.77 | 0.634
EYITRYIASLK [PSMA7_Y110] | 0.708 | 0.498 | 0.416 | 0.456 | 0.415 | 0.414 | 0.717 | 0.416 | 0.51 | 0.526 | 0.499 | 0.569 | 0.477 | 1.05 | 1.46 | 0.57
EYQLPYYNMVP [BMPR1A_Y457] | 6.15 | 2.81 | 3.64 | 14.1 | 11.9 | 5.56 | 1.12 | 3.83 | 3.23 | 9.58 | 7.06 | 3 | 5.13 | 9.58 | 1.87 | 3.74
FAANFYKLLGN [ROR2_Y646_D644N_YF] | 0.898 | 0.476 | 0.462 | 0.425 | 0.512 | 0.347 | 0.986 | 0.365 | 0.464 | 0.924 | 0.419 | 0.726 | 0.46 | 0.676 | 0.453 | 0.468
FADIAYNYRRG [PAH_Y166_H170R] | 0.638 | 0.493 | 0.458 | 0.39 | 0.449 | 0.329 | 0.702 | 0.466 | 0.452 | 0.529 | 0.429 | 0.502 | 0.511 | 0.699 | 0.583 | 0.427
FAELVYTVFWH [ASS1_Y322_G324V] | 2.15 | 2.33 | 2.94 | 4.39 | 3.34 | 6.19 | 1.63 | 7.64 | 5.47 | 2.27 | 8.06 | 12.5 | 7.17 | 1.1 | 1.05 | 0.713
